In publication PMC7949115, “Poly(ADP-ribose) polymerase 1 regulates mitochondrial DNA repair in an NAD-dependent manner”:
Each block holds one molecule with its values, some of them ahead of it.

What was measured:
[1] = molecular target: mitochondrial DNA polymerase (Pol γ) holoenzyme, heterotrimer of Pol γA and dimeric Pol γB ΔI4 (UniProt P54098); assay: ITC; PARP-1 titrated into Pol γ (5 μM) to a final 10 μM, without DNA; 25 °C; Buffer RX (25 mM Hepes pH 7.5, 140 mM KCl, 5 mM MgCl2, 5% glycerol, 1 mM BME)
[2] = molecular target: T1, PARP1 (PARP-1);Pol gamma A (catalytic subunit);Pol gamma B deltaI4 (accessory subunit) (Homo sapiens?;Homo sapiens?;Homo sapiens?) (UniProt P09874+P54098+Q9UHN1); assay: EMSA; details: apparent; PARP1 titrated into Pol gamma (0.5 uM)-DNA (0.75 uM); no NAD+; Buffer RX: 25 mM Hepes pH 7.5, 140 mM KCl, 5 mM MgCl2, 5% glycerol, 1 mM BME; ITC at 25 C; EMSA incubated on ice then room temperature, 4-20% native PAGE in …
[3] = molecular target: T1, PARP1 (PARP-1);Pol gamma A (catalytic subunit);Pol gamma B deltaI4 (accessory subunit) (Homo sapiens?;Homo sapiens?;Homo sapiens?); assay: ITC; details: Buffer RX: 25 mM Hepes pH 7.5, 140 mM KCl, 5 mM MgCl2, 5% glycerol, 1 mM BME; ITC at 25 C; EMSA incubated on ice then room temperature, 4-20% native PAGE in …
PARP1 (PARP-1) = PARP1 (PARP-1) (UniProt P09874 1-1014); assay: ITC; 25 C, 5 mM Mg2+, no NAD+; dH -58.4 kcal/mol; Buffer RX: 25 mM Hepes pH 7.5, 140 mM KCl, 5 mM MgCl2, 5% glycerol, 1 mM BME; ITC at 25 C; EMSA incubated on ice then room temperature, 4-20% native PAGE in Tris-glycine at 0 C; details: protein: recombinant; tags: His (Ni-NTA purified); self-annealed dumbbell, two hairpins, 3-nt gap
Sequence of PARP1 (PARP-1) (P09874 whole entry): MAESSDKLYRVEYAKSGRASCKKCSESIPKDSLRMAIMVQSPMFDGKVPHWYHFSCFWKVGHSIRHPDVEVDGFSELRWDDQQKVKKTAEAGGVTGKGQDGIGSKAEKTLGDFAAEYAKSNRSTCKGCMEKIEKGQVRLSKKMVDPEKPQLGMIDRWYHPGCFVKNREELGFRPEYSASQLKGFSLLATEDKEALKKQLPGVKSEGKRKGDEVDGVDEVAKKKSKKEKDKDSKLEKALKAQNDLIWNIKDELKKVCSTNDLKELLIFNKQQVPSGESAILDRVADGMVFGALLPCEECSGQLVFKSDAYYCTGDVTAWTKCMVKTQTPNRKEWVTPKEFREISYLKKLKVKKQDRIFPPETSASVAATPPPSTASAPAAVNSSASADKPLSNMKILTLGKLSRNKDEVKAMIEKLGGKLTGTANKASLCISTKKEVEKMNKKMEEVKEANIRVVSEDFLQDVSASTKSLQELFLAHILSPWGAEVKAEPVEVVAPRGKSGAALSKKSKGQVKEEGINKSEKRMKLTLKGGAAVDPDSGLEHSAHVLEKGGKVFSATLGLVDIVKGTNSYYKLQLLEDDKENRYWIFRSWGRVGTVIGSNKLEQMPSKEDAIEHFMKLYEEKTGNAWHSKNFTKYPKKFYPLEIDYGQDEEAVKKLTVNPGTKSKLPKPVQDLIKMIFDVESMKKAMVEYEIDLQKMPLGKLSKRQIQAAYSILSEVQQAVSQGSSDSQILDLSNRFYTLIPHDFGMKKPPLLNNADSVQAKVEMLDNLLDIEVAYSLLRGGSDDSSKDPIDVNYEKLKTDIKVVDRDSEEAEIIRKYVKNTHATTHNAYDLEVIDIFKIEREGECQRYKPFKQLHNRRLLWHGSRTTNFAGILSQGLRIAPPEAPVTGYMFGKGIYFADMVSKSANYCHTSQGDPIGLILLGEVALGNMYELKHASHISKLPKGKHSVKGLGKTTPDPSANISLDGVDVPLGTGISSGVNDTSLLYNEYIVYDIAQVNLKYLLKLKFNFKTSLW

T1 sequence (P09874 whole entry, stated change not applied, chain 1 of 3): as the sequence (P09874 whole entry) above
T1 sequence (P54098 30-1239, stated change not applied, chain 2 of 3): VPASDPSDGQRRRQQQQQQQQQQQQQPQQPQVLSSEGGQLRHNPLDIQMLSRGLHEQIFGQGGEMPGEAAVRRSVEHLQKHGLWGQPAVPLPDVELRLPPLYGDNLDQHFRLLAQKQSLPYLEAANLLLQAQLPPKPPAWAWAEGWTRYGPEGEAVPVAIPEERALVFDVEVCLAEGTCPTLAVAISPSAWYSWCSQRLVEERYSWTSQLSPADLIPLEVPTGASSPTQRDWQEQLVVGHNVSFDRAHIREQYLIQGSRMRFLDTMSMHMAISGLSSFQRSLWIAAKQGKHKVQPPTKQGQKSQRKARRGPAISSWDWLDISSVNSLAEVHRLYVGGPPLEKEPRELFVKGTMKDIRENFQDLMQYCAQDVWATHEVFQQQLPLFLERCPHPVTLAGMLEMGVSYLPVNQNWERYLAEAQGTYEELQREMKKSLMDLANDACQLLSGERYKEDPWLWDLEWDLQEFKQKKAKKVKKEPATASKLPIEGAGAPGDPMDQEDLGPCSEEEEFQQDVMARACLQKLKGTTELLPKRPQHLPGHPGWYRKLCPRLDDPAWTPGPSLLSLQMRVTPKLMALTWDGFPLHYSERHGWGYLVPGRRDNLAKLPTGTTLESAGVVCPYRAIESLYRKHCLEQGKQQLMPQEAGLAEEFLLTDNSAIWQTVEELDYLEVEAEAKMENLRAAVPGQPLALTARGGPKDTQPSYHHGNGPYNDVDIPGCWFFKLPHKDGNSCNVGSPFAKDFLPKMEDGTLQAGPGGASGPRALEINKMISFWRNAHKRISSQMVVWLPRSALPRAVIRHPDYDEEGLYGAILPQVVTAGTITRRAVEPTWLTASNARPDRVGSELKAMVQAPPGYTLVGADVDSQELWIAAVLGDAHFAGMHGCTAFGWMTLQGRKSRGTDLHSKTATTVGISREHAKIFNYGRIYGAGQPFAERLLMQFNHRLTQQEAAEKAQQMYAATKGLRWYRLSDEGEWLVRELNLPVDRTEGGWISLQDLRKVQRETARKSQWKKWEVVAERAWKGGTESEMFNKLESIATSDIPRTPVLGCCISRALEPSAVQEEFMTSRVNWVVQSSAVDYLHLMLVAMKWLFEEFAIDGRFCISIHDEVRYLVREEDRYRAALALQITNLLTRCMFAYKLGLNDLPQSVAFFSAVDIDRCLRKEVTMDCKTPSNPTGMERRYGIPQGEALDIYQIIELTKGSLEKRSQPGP
T1 sequence (Q9UHN1 whole entry, stated change not applied, chain 3 of 3): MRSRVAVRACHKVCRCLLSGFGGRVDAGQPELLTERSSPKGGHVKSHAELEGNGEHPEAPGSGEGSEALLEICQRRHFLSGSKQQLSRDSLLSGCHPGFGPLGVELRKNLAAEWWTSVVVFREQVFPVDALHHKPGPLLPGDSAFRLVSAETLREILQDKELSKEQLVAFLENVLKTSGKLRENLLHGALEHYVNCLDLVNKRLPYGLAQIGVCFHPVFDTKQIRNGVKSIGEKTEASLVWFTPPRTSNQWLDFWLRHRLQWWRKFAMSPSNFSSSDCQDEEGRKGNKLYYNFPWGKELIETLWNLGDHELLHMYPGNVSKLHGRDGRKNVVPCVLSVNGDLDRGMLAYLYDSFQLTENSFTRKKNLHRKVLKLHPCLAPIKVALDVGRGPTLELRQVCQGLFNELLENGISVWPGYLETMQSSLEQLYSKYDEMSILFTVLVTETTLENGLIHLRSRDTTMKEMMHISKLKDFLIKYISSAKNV

- Kd [1]: > 10000 nM
Molecule: Poly(ADP-ribose) polymerase 1 (from UniProt P09874 1-1014) (enzyme)

Molecule: CTTTTCTGGTGAAAAGCTCGTCGGCAGCGCTTGAGCAGCGGCAGCTGGTGCTGCCGCTGCTCAAGCGCTGCCGAC [d3ntgap (75-nt dumbbell with 3-nt gap)]
- Kd [2]: 600 nM
- Kd [3]: 111 nM

B1: d3ntgap (75-nt dumbbell with 3-nt gap) (structured_DNA)
DNA: CTTTTCTGGTGAAAAGCTCGTCGGCAGCGCTTGAGCAGCGGCAGCTGGTGCTGCCGCTGCTCAAGCGCTGCCGAC
- Kd (PARP1 (PARP-1)): 36.4 nM
